Experimental data taken from US20230056815A1 (VIELA BIO, published 2023).
Residue numbers refer to the chain shown, from its start.

T1: human soluble FLT3L (recombinant huFLT3L) (human, UniProt P49771 27-184)
T1 sequence (looked up): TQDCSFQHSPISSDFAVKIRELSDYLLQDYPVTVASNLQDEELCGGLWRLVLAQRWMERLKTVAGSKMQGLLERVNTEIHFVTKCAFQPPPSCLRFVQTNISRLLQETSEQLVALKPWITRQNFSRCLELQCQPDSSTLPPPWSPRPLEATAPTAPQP

T2: human FLT3L on the cell surface (human, UniProt P49771 27-235)
T2 construct: whole, on cells; The assay field of each row says which cells carried it; also called cell-surface FLT3L; huFLT3L-expressing CHO cells
T2 sequence (looked up): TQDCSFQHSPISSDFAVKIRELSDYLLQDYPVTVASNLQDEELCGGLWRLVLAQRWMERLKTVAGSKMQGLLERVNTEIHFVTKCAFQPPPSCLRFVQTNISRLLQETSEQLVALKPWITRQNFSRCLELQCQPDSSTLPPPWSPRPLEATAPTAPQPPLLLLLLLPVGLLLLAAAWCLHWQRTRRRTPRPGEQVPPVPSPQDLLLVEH

T3: mouse FLT3L on CHO cells (mouse, UniProt P49772 27-232)
T3 construct: whole, on cells; also called cell surface mouse FLT3L
T3 sequence (looked up): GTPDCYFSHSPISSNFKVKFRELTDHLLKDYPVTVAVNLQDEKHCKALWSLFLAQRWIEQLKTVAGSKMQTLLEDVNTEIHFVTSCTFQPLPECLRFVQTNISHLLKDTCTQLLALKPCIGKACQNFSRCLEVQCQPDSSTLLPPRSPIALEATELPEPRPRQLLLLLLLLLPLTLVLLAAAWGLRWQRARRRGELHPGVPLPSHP

T4: mouse soluble FLT3L (mouse, UniProt P49772 27-189)
T4 sequence (looked up): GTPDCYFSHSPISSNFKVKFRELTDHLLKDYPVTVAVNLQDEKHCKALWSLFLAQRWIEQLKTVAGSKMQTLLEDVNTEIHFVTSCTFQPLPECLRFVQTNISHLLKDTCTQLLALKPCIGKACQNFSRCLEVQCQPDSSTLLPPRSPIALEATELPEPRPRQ

T5: recombinant human colony stimulating factor 1 (CSF1) (human, UniProt P09603 33-190, limits assumed)
T5 construct: also called huCSF1; huCSF
T5 sequence (looked up): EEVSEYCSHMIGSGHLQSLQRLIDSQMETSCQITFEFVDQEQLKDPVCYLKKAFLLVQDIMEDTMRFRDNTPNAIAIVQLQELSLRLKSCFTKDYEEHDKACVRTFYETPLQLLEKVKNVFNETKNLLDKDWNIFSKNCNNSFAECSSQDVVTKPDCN

B1: Dyax3 antibody (IgG1 TM format) (antibody, V domains shown)
VH: EVQLLESGGGLVQPGGSLRLSCAASGFTFSMYEMRWVRQAPGKGLEWVSVIPSGGKTFYADSVKGRFTISRDNSKNTLYLQMNSLRAEDTAVYYCARYSRWFGQLGFYSHYAMDVWSQGTTVTVSS
VL: DIQMTQSPSSLSASVGDRVAITCRASQSIDTYLNWYQQKPGKAPKLLIYAASKLEDGVPSRFSGSGTGTDFTLTIRSLQPEDFASYFCQQSYSSPGITFGPGTKVEIK
notes: also called DTAX3
B2: Dyax3 Fab (Fab, V domains shown)
VH: B1 VH
VL: B1 VL
B3: AM40 (MEDI1116) antibody (antibody, V domains shown)
VH: QVQLVQSGAEVKKPGSSVKVSCKASGGTFSSYALSWVRQAPGQGLEWMGTRPPTSRTASYAQKFQGRVTITVDESTSTGYMELSSLRSEDTAVYYCASNDFVYGSYRFWGQGTTVTVSS
VL: NFMLTQPHSVSESPGKTVTISCTRTSGNIAGYFVQWYQQRPGSSPTTVIYEDYQRPSGVPDRFSGSIDSSSNSASLTISGLKTEDEADYYCQSYDDYRRAAFGGGTKLTVLG
B4: SC4017 antibody (antibody, V domains shown)
VH: B3 VH
VL: B3 VL with N28W
B5: CAT8 antibody (IgG1 TM format) (antibody, V domains shown)
VH: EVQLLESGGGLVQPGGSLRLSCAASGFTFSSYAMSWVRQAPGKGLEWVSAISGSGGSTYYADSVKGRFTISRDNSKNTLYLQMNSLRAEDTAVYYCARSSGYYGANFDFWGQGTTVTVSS
VL: QSVLTQPPSASGTPGQRVAISCSGSSSNIGSGYVYWYQQVPGTAPTLLIHRNNQRPSGVPDRFSGSKSGTSASLAISGLRSEDEADYYCAAWDDSLSGYVFGTGTKVTV
notes: Human antibody from phage display
B6: CAT8 Fab (Fab, V domains shown)
VH: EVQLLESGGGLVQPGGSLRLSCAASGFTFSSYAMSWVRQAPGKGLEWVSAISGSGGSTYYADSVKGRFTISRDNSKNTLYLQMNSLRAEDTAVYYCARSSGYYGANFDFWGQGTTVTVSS
VL: B5 VL
B7: CAT26 antibody (IgG1 TM format) (antibody, V domains shown)
VH: EVQLLESGGGLVQPGGSLRLSCAASGFTFSSYAVSWVRQAPGKGLEWVSAISGSGGSTYYADSVKGRFTISRDNSKNTLYLQMNSLRAEDTAVYYCVKDAYGSSWYFYYFDYWGQGTMVTVSS
VL: QSVLTQPPSASGTPGQRVTISCSGSSSNIGINPVNWYQQLPGTAPKVLIYSDKYRPSGVADRFSGSKSGTSASLAISGLQSEDEADYFCAAWDDSLNGRVFGTGTKLTVL
B8: CAT26 Fab (Fab, V domains shown)
VH: B7 VH
VL: B7 VL
B9: Dyax5 antibody (IgG1 TM format) (antibody, V domains shown)
VH: EVQLLESGGGLVQPGGSLRLSCAASGFTFSSYIMVWVRQAPGKGLEWVSSIYSSGGSTSYADSVKGRFTISRDNSKNTLYLQMNSLRAEDTAVYYCTRYSRWFGQLGFYSHYAMDVWSQGTTVTVSS
VL: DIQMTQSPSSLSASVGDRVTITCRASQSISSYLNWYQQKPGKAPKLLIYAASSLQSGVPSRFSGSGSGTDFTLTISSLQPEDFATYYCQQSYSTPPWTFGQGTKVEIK
B10: Dyax5 Fab (Fab, V domains shown)
VH: B9 VH
VL: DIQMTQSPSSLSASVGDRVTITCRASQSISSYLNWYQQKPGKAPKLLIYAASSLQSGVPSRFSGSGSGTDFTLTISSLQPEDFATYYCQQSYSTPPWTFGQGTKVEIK

Assays:
[1] = biological target: T1, human soluble FLT3L (recombinant …); assay: cell-based or functional assay
[2] = biological target: T2, human FLT3L on the cell surface; assay: flow cytometry on CHO cells expressing full-length human FLT3L, PE anti-hu IgG
Protocol: (§1) Consistent with this, cell surface binding to human, cyno, and mouse FLT3L was evaluated by transfecting Chinese hamster ovary (CHO) cells with the respective full-length protein for each species. Candidate clones were incubated with FLT3L-expressing cell lines for 1 hour at 4° C. before being washed twice to remove unbound antibody. Cells were then incubated with PE-labeled goat anti-hu IgG secondary detection pAb to quantitate bound antibody which was measured by flow cytometric analysis of PE signal. The huFLT3-Fc construct, on a hu IgG backbone, was used as a positive control reagent for FLT3L expression as it cross reacts with cyno and mouse, in addition to human ligand.
(§2) As differences were apparent in the degree of receptor occupancy for each clone, both EC50 and max occupancy were noted (expressed as percent relative to FLT3-Fc) and taken into account in the final evaluation. Results are shown in Table 4 for human, cyno, and mouse FLT3L expressed in CHO cells.

mouse FLT3L on CHO cells [3] = biological target: T3, mouse FLT3L on CHO cells; assay: flow cytometry on CHO cells expressing full-length mouse FLT3L, PE anti-hu IgG
Protocol: as §1, §2

[4] = biological target: T6, cynomolgus monkey FLT3L on CHO cells (cynomolgus monkey); assay: flow cytometry on CHO cells expressing full-length cyno FLT3L, PE anti-hu IgG
T6 construct: whole, on cells; also called cell surface cyno FLT3L
Protocol: as §1, §2

[5] = biological target: cynomolgus monkey soluble FLT3L (cynomolgus monkey); assay: cell-based or functional assay
[6] = biological target: T1, human soluble FLT3L (recombinant …); assay: cell-based or functional assay; remark: listed apart in the source
mouse soluble FLT3L = biological target: T4, mouse soluble FLT3L; assay: cell-based or functional assay
[7] = biological target: T1, human soluble FLT3L (recombinant …); assay: Biacore, Fab
[8] = biological target: T1, human soluble FLT3L (recombinant …); assay: Biacore, Fab, kinetic (koff/kon)
[9] = biological target: T7, cynomolgus monkey soluble FLT3L (cynomolgus monkey); assay: Biacore
T7 construct: extracellular domain; also called cyno sFLT3L; cyno FLT3L

[10] = biological target: T1, human soluble FLT3L (recombinant …); assay: Biacore
[11] = biological target: T8, recombinant human stem cell factor (SCF) (human, UniProt P21583 26-189); assay: ELISA on coated recombinant human SCF
T8 construct: also called huSCF; KIT-ligand
Protocol: (§3) To test this, an ELISA plate was coated with 2 µg of recombinant human SCF or CSF1. After washing, the plate was blocked with 3% milk in Tris-Phosphate Buffered Saline (TPBS) and lead antibodies were added in serial (×2) dilution, starting at 50 µg/ml. After incubation, unbound antibody was removed by washing and bound antibody was detected using anti-human IgG-HRP in combination with TMB substrate for color development. Commercially available goat anti-SCF pAb and mouse anti-CSF1 mAb were used as positive binding controls.

mouse FLT3L on CHO cells [12] = biological target: T3, mouse FLT3L on CHO cells; assay: flow cytometry on CHO cells expressing mouse FLT3L, anti-hu IgG-PE detection
Protocol: as §1

[13] = biological target: T5, recombinant human colony stimulating …; assay: ELISA on coated recombinant human CSF1
Protocol: as §3

T8 sequence (P21583 26-189 limits assumed): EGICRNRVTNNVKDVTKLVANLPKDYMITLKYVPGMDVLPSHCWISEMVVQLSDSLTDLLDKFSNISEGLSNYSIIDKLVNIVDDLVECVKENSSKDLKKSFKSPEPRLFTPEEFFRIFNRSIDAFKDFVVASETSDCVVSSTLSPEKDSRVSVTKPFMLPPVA

Row | Binder | EC50 [2] [nM] | maximum occupancy (% relative to FLT3-Fc) [2] [%] | EC50 [4] [nM] | maximum occupancy (% relative to FLT3-Fc) [4] [%] | IC50 (nM), inhibition of FLT3 downregulation on RS4;11 cells [5] [nM] | IC50 (nM), inhibition of FLT3 downregulation on RS4;11 cells [6] [nM] | koff [7] [s⁻¹] | kon [7] [M⁻¹ s⁻¹] | Kd [8] [nM] | other results
1 | B1 | 0.27 | 33 | 1.8 | 35 | 3070 | 54.8 | – | – | – | IC50 (nM) against 0.476 nM FLT3L, ERK phosphorylation in CD133+ stem cells [1]: 2.4 nM; IC50 (nM) against 0.476 nM FLT3L, MEK phosphorylation in CD133+ stem cells [1]: 93 nM; EC50 (mouse FLT3L on CHO cells [3]): 0.39 nM; maximum occupancy (% relative to FLT3-Fc) (mouse FLT3L on CHO cells [3]): 16%; IC50 (nM), inhibition of FLT3 downregulation on RS4;11 cells (mouse soluble FLT3L): 1490 nM
2 | B2 | – | – | – | – | – | – | 0.00123 | 66000 | 18.7 | –
3 | B3 | – | – | – | – | – | – | – | – | – | Kd [9]: 0.063 nM; koff [9]: 0.00017 s⁻¹; kon [9]: 2.66e+06 M⁻¹ s⁻¹; Kd [10]: 0.17 nM; koff [10]: 0.00018 s⁻¹; kon [10]: 1.09e+06 M⁻¹ s⁻¹
4 | B4 | – | – | – | – | – | – | – | – | – | Kd [9]: 0.0088 nM; koff [9]: 5e-05 s⁻¹; kon [9]: 5.84e+06 M⁻¹ s⁻¹; Kd [10]: 0.037 nM; koff [10]: 5e-05 s⁻¹; kon [10]: 1.45e+06 M⁻¹ s⁻¹
5 | B5 | 0.08 | 60 | 9 | 32 | 3000 | 43.5 | – | – | – | binding result [11]: no binding (tested: about 0.3 uM); binding result (mouse FLT3L on CHO cells [12]): no binding (tested: x = -7.2 (x axis without title or unit)); binding result [13]: no binding (tested: about 0.3 uM)
6 | B6 | – | – | – | – | – | – | 0.00556 | 628000 | 8.85 | –
7 | B7 | 0.19 | 46 | 1.1 | 96 | 2580 | 618 | – | – | – | binding result [11]: no binding (tested: about 0.3 uM); binding result (mouse FLT3L on CHO cells [12]): no binding (tested: x = -7.2 (x axis without title or unit)); binding result [13]: no binding (tested: about 0.3 uM)
8 | B8 | – | – | – | – | – | – | 0.00084 | 191000 | 4.37 | –
9 | B9 | 0.66 | 28 | – | – | 6020 | 245 | – | – | – | IC50 (nM) against 0.476 nM FLT3L, ERK phosphorylation in CD133+ stem cells [1]: 25 nM; EC50 (mouse FLT3L on CHO cells [3]): 0.11 nM; maximum occupancy (% relative to FLT3-Fc) (mouse FLT3L on CHO cells [3]): 51%; IC50 (nM), inhibition of FLT3 downregulation on RS4;11 cells (mouse soluble FLT3L): 354 nM
10 | B10 | – | – | – | – | – | – | 0.00501 | 228000 | 22 | –
